From publication PMC9736779, “Properties and Potential Antiproliferative Activity of Thrombin-Binding Aptamer (TBA) Derivatives with One or Two Additional G-Tetrads”

Molecular target: nucleolin (NCL) (Homo sapiens, UniProt P19338 1-710)
Experiment: SPR; 70 mM KCl; SPR (Biacore X-100, CM5): 10 mM HEPES, 70 mM KCl, pH 7.4, 25 C; analyte 5-500 uM; two-state reaction fit
Details: protein: commercial

Chain of nucleolin (NCL) (P19338 whole entry): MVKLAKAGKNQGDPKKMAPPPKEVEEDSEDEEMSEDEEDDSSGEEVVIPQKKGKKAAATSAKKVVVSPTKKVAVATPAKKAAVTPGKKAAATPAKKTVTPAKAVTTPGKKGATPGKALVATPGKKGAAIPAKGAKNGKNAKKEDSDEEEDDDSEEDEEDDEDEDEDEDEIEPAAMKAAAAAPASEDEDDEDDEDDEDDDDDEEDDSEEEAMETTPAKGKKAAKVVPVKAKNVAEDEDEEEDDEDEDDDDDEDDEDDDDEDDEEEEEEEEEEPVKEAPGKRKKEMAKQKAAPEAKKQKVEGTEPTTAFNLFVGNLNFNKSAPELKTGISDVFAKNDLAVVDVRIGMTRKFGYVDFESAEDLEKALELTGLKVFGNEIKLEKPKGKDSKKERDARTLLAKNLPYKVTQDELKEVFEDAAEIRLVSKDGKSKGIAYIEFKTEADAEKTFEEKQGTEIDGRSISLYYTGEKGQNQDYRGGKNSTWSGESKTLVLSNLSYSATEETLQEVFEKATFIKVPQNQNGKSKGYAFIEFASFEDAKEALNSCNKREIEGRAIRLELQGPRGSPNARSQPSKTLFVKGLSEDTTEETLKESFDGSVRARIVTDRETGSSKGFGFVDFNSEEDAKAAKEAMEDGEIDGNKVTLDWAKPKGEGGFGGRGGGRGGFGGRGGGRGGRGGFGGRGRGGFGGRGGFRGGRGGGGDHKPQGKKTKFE

## GGTTGGTGTGGTTGG (structured_DNA) [TBA]
Antiparallel G4, intramolecular
  Kd: 62.5 µM

## GGGGTTGGGGTGTGGGGTTGGGG (structured_DNA) [TBAG4]
Antiparallel G4, two extra G-tetrads, intramolecular
  Kd: 13.5 µM

## GGGTTGGGTGTGGGTTGGG (structured_DNA) [TBAG3]
G4, one extra G-tetrad, intramolecular
  Kd: 1290 µM
